Measured values taken from the nanobody polyreactivity screen of Harvey et al. (2022).

Test: yeast display, Sf9 membrane polyspecificity reagent, FACS + sequencing; frameworks hold sequencing errors
Procedure, shortened: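 Sorting gates, low and high (top ~1%), were placed on anti-HA fluorescence to track expression and on streptavidin fluorescence to track reagent binding. A clone's polyreactivity label is taken from the gate it came out of. The reagent was 10% biotinylated, detergent-solubilized Sf9 membrane, applied for 1 hour at 4 °C to galactose-induced yeast display cells.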
For “QVQLVESGGGLVQAGGSLRLSCAASGIIFRSYTMGWYRQAPGKERELVASITRSGGITYYADSVKGRFTISRDNAKNTVYLQMNSLKPEDTAVYYCAARHRYYYQYRSDYWGQGTQVTVSS”, the “polyreactivity (PSR sort gate)” value was “high polyreactivity”. For “QVQLVESGGGLVQAGGSLRLSCAASGIIFRVYAMGWYRQAPGKERELFATITWSGGSTFYADSLKGRFTISRDNAKNTVYLQLNSLKPEDTAVYYCAKRGYVRSGLGRPYADDYWGQCTQVTVSS”, the “polyreactivity (PSR sort gate)” value was “low polyreactivity”. For “QVQLVESGGGLVQAGGSLRLSCAASGIIFRWYTMGWYRQAPGKEREVVAAITGRGGSTYYADSVKGRFTISRDNAKNTVYLQMNSLKPEDSAVYYCAAQYSYPTPYRTYEYDYWGQGTQVTVSS”, the “polyreactivity (PSR sort gate)” value was “high polyreactivity”. For “QVQLVESGGGLVQAGGSLRLSCAASGIIFRWYVMGWYRQSPGKERELVAAITNGGRTYYADSVKGRFTISRDNAKNTVYLQMNSLKPEDTEVYYCAAYFRRKMDYWGQGTQVTVSS”, the “polyreactivity (PSR sort gate)” value was “high polyreactivity”. With “QVQLVESGGGLVQAGGSLRLSCAASGIIFRYYALGWYRKAPRKERELVAAINWRGGRTYYADSVKGRFTISRDNAKNTVYLQMNSLKPEDTAVYYCAAYIYYPYRNDYWGQGTQVTVSS” the “polyreactivity (PSR sort gate)” value was “high polyreactivity”. With “QVQLVESGGGLVQAGGSLRLSCAASGIIFRYYAMGWYRPAPGKERELVAAISSGGSTNYADSVKGRFTISRDNAKNTVYLQMNSLKPEDTAVYYCAADYTYNGLEYDYWGQGTQVTVSS” the “polyreactivity (PSR sort gate)” value was “high polyreactivity”. For “QVQLVESGGGLVQAGGSLRLSCAASGIIFRYYAMGWYRQAPGKERELVAAISGTGSTKYADSVKGRFTISRDNAKNTVYLQMNSLKPEDTAVYYCNPRKRYARYGGSGYDYWGQGTQVTVSS”, the “polyreactivity (PSR sort gate)” value was “high polyreactivity”. With “QVQLVESGGGLVQAGGSLRLSCAASGIIFRYYAMGWYRQAPGKERELVAAISWSTDSTYYADSVKGRFTISRDNAKNTVYLPMNSLKPEDTAVYYCNARPSYYRISPYDYWGQGTQVTVSS” the “polyreactivity (PSR sort gate)” value was “high polyreactivity”. For “QVQLVESGGGLVQAGGSLRLSCAASGIIFRYYAMGWYRQAPGKERELVAVITGRGGGTYYADSVKGRFTISRDNAKNTVYLQMNSLKPEDTAVYYCAKDFTGHYPKGFDYWGQGTQVTVSS”, the “polyreactivity (PSR sort gate)” value was “low polyreactivity”. For “QVQLVESGGGLVQAGGSLRLSCAASGIIFRYYVMGWYRQAPGKERELVADITSGGSTYYADSVKGRFTISRDNEKNTVYLQMNSLKPEDTAVYYCAADYQYDWFYYWGQGTQVTVSS”, the “polyreactivity (PSR sort gate)” value was “high polyreactivity”. For “QVQLVESGGGLVQAGGSLRLSCAASGIIFSAYAMGCYRQAPGKESELVAAISSTGGSTYYADSVKGRFTISRDNAKNTVYLQMNSLKPEDTADYYCATAFTPSKLSRMGYWGQGTQVTVSS”, the “polyreactivity (PSR sort gate)” value was “high polyreactivity”. For “QVQLVESGGGLVQAGGSLRLSCAASGIIFSFYAMGWYRQAPWKERELVAAISSGGNTNYADSVNGRFTISRDNAKNTVYLQMNSLKPEDTAVYYCAAGYYIWSTYDYWGQGTQVTVSS”, the “polyreactivity (PSR sort gate)” value was “low polyreactivity”. In the case of “QVQLVESGGGLVQAGGSLRLSCAASGIIFSGYAMGWYRQAPGKERELVASIRSGSNTYYADSVKGRFRISRDNAKNTVYLQMNSLKPEDTAVYYCAARVVPATFRFIRYPHPYYYWGQGTQVTVSS”, the “polyreactivity (PSR sort gate)” value is reported as “low polyreactivity”. For “QVQLVESGGGLVQAGGSLRLSCAASGIIFSHNVMGWYRQAPGKERELVAAITYSGGSTYYADSVKGRFTISRDNAKNTVYLQMNSMKPEDTAVYYCNAVTYSSPYRFDYWGQGTQVTVSS”, the “polyreactivity (PSR sort gate)” value was “low polyreactivity”. For “QVQLVESGGGLVQAGGSLRLSCAASGIIFSIYAMGWSRQAPGKERELVAAISGRGGRTYYADSVKGRFTMSRDNAKNTVYLQMNSLKPEDTAVYFCAAGAHAYAHYSWFYFRMHYWGQGTQVTVSS”, the “polyreactivity (PSR sort gate)” value was “low polyreactivity”. For “QVQLVESGGGLVQAGGSLRLSCAASGIIFSKNAMGWYRQAPGKERELVATINRSGGSTYADSVKGRFTISRDNAKNTVYLQMNSLKPEDTAVYYCAKRASPFWRGYDSWGQGTQVTVSS”, the “polyreactivity (PSR sort gate)” value was “low polyreactivity”. For “QVQLVESGGGLVQAGGSLRLSCAASGIIFSPYAMGWYRQAPGKERELVAAITNNGGGTYYADSVKGRFTISRDNAKNTVYLQMNSLKPEDTAVYYCAAEGFLEYPYYIWYDYWGQGTQVTVSS”, the “polyreactivity (PSR sort gate)” value was “high polyreactivity”. For “QVQLVESGGGLVQAGGSLRLSCAASGIIFSSNAMGWYRQAPGKERELVAAISRSGGSTYYADSVKARFTISRDNAKKTVYLQMNSLKPEDTAVYDCAAVYRRGHEYDYWRQGTQVTVSS”, the “polyreactivity (PSR sort gate)” value was “high polyreactivity”. In the case of “QVQLVESGGGLVQAGGSLRLSCAASGIIFSTYAMGWYRHAPWKERELVAAITRGDSTNYADSVKGRFTISRDNAKNTVYLQMNSLKPEDTAVYYCAVDKRYGRVVGRDYDYWGQGTQVTVSS”, the “polyreactivity (PSR sort gate)” value is reported as “high polyreactivity”. In the case of “QVQLVESGGGLVQAGGSLRLSCAASGIIFSVYAMGWYRQAPGTERELVAAISGSGGSTYYADSVKGRFTISRDNAKNTVYLQMNSLKPEDTAVYYCAARKKWSIRSDYWGQGTQVTVSS”, the “polyreactivity (PSR sort gate)” value is reported as “high polyreactivity”. With “QVQLVESGGGLVQAGGSLRLSCAASGIIFSYNVMGWYRQAPGTERELVAGISRSGGSTYYADSVKGRFTISRDNAKNTVYLQMNSLKPEDTAVYYCNRVSYGPYYSYWSDFGYWGQGTQVTVSS” the “polyreactivity (PSR sort gate)” value was “high polyreactivity”. With “QVQLVESGGGLVQAGGSLRLSCAASGIIFSYYAMGWYIQAPGKERELVAAISSSGVSTNYADSVKGRFTISRDNAKNTVYLQMNSLKPEDTAVYYCNARGYYWYRPYVNSNGGYWGQGTQVTVSS” the “polyreactivity (PSR sort gate)” value was “high polyreactivity”. In the case of “QVQLVESGGGLVQAGGSLRLSCAASGIIFSYYPMGRYRQAPGIERELVAAISRSGGNTYYADSVKGRFTISRDNAKNTVYVQMNSLKPEDTAVYYCAVGWYDDYYYGYDYWGQGTQVTVSS”, the “polyreactivity (PSR sort gate)” value is reported as “high polyreactivity”. With “QVQLVESGGGLVQAGGSLRLSCAASGIIFTANVMGWYRHAPGKERELDAVISLSGGITFYADSVKGRFTISRDNAKNTVYLQMNSLKPEDTAVYYCAAEPWYSWKTEEDYWGQGTQVTVTS” the “polyreactivity (PSR sort gate)” value was “low polyreactivity”. In the case of “QVQLVESGGGLVQAGGSLRLSCAASGIIFTDYAMGWDRQAPGKERELVAAISSGGGSTYYADSVKGRFTISRDNAKNTVYIQLNSQKPEDTAVYYCAAEGYLISGACDYLYDYYWGQGTQVTVSS”, the “polyreactivity (PSR sort gate)” value is reported as “high polyreactivity”. For “QVQLVESGGGLVQAGGSLRLSCAASGIIFTGYAMGWYRQAPGKERELVAAISDTGGSTYYADSVKGRFTISRDNAKNTVYLQMNSLKPEDTAVYYCAADWWSRYYYWGQGTQVTVSS”, the “polyreactivity (PSR sort gate)” value was “high polyreactivity”. In the case of “QVQLVESGGGLVQAGGSLRLSCAASGIIFTLYAMGWYRQAPGKERELVATISTGGGTYYADSVKGRFTISRDNAKNTVYLQMNSLKPEDTAVYYCNAVKLLGTRGYGYWGQGTQVTVSS”, the “polyreactivity (PSR sort gate)” value is reported as “high polyreactivity”. In the case of “QVQLVESGGGLVQAGGSLRLSCAASGIIFTSNTMGWYRQAPGKEREFVASINWNGSSTYADSVKGRFTISRDNAKNTVYLQMNSMKPEDTAVYYCNADYNRNSVQFSLYDYWGQGTQVTVSS”, the “polyreactivity (PSR sort gate)” value is reported as “low polyreactivity”. With “QVQLVESGGGLVQAGGSLRLSCAASGIIFTTYVMGWYRHAPGTESELVAAISRGGRTYYADSVKGRFTLSRDNAKHTVYLQMNSLKPEDTAVYYCARVAYKGYGEDDYWGQGTQVTVSS” the “polyreactivity (PSR sort gate)” value was “high polyreactivity”. For “QVQLVESGGGLVQAGGSLRLSCAASGIIFTYAMGWYRQAPGKERELVAAIDWRGGRTYYADSVKGRFTISRDNAKNTVYLQMNSLKPEDTAVYYCAARLPGGTYYWGQGTQVTVSS”, the “polyreactivity (PSR sort gate)” value was “high polyreactivity”. In the case of “QVQLVESGGGLVQAGGSLRLSCAASGIIFVKNAMGWYRQAPGKVRELVAAISRSGARTYYADSVKGRFTISRDNAKNTVYLLMNSLKPEDSAVYYCNKVVRYGHTRKIDTESDYWGQGTQVTVSS”, the “polyreactivity (PSR sort gate)” value is reported as “high polyreactivity”. With “QVQLVESGGGLVQAGGSLRLSCAASGIIFVKYAMGWYRQAPGKERELVAAITSGGSTYYADSVKGRFTISRDNAKNTVYLQMNSLKPDDTAVYYCNADSWFLYYFTINGYWGQGTQVTVSS” the “polyreactivity (PSR sort gate)” value was “high polyreactivity”. For “QVQLVESGGGLVQAGGSLRLSCAASGIIFVPYAMGWYRQAPGKERELVAANNSGGNTYYADSVKGRFTISRDNAKNTVYLLIYSLKPEDTAVYYCGAYSKYPVFDYNYWGQGTQVTVSS”, the “polyreactivity (PSR sort gate)” value was “high polyreactivity”. For “QVQLVESGGGLVQAGGSLRLSCAASGIIFVRNAMGWYRKAPGKERELVAAISRSGGSTYYADSVKWRFTISRDNAKNTVYLQMNSLKPEDTAVYYCAAVLRLSSGYDYWGQGTQVTVSS”, the “polyreactivity (PSR sort gate)” value was “high polyreactivity”. For “QVQLVESGGGLVQAGGSLRLSCAASGIIFVRYAMGWYIQAPGKERELVAAINSRGNTYYADSVKGRFTISRDNAKNSVYLQMNSLKPEDTAVYYCAKYNSWGQGTQVTVSS”, the “polyreactivity (PSR sort gate)” value was “high polyreactivity”. With “QVQLVESGGGLVQAGGSLRLSCAASGIIFVSYDMGWYRQAPGKERELVAAINRGGRTYYADSVKGRFTISRDNAKNTVYLQMNSLKAEDTAVYYCAAQFHFRPFSLTYDYWGQGTQLTVSS” the “polyreactivity (PSR sort gate)” value was “high polyreactivity”. For “QVQLVESGGGLVQAGGSLRLSCAASGIIFVWYTMGWYRQAPGKERELVAAIDSIGDGTYYADSVKGRFTISRDNAKNTVYLQMNSLKPEDTAVYYCAVDDYYEMDYWGQGTQVTVSS”, the “polyreactivity (PSR sort gate)” value was “low polyreactivity”. With “QVQLVESGGGLVQAGGSLRLSCAASGIIFVYYTMGWYRQAPGKERELVAAITSGGSTYYADSVKGRFTISRDNAKNTVYLQMNSLKPEDTAVYYCAAVGRPPYAGDRGYWGQGTQVTVSS” the “polyreactivity (PSR sort gate)” value was “high polyreactivity”. In the case of “QVQLVESGGGLVQAGGSLRLSCAASGIIFWWYAMGWYRQAPGKERELVAAISGTGGSTYYADSVKGRFTISRDNAKNTVYLQMNSLKPEDTAVYYCAKRASPFWRGYDSWGQGTQVTVSS”, the “polyreactivity (PSR sort gate)” value is reported as “low polyreactivity”. In the case of “QVQLVESGGGLVQAGGSLRLSCAASGIIFYANVMGLYRQAPGKERELVAGISRNGGRTYYADSVKGRFTISRDNAKNTVYLQMNSLKPADTAVYYCAALGSYTSIFDYWGQGTQVTVSS”, the “polyreactivity (PSR sort gate)” value is reported as “high polyreactivity”. In the case of “QVQLVESGGGLVQAGGSLRLSCAASGIIFYDYAMGWYRQAPGKERELVAAITSGGSTNYADSVKGRFTISRDNAKNTVYLQMNSLKPEDTAVYYCAATYWSWIPLRFYRGQGTQVTVSS”, the “polyreactivity (PSR sort gate)” value is reported as “low polyreactivity”. With “QVQLVESGGGLVQAGGSLRLSCAASGIIFYDYAMGWYRQAPGKERELVAAITSNGDNTYYADSVKGRFTISRDNAKNTVYLPMNSLKPEDTAVYYCAVDGSFAADFDNYLEEYGYWGQGTQVTVSS” the “polyreactivity (PSR sort gate)” value was “low polyreactivity”. For “QVQLVESGGGLVQAGGSLRLSCAASGIIFYENAMGWYRQAPGKERELVAAIDGDDGGTDYADSVKGRFTISRDNAKNTVYLQMNSLKPEDTAVYYCAADFGAETGYYYWGQGTQVTVSS”, the “polyreactivity (PSR sort gate)” value was “low polyreactivity”.
